Experiment: Peptide depletion (degradation or adsorption) during the experimental period, by HPLC and 125I-labeled peptide
Format: physicochemical
Conditions: HPLC and 125I-labeled peptide; concentrations above 0.1 )M

Question: Which “depletion (degradation or adsorption) during the experimental period” value does the source give for “dynorphin A: control peptide purchased from Peninsula Laboratories” here?
Answer: Its value is “No significant depletion”.

Reference: patent EP0459978B1, “CLASS I MHC MODULATION OF SURFACE RECEPTOR ACTIVITY” (THE REGENTS OF THE UNIVERSITY OF CALIFORNIA, priority 1989, dated 1997)
